Among the data in PMC7137648 (2020) are Kd values, retold here.

The chains are these.
B1: SR-F1(20-221) (domain or fragment)
chain: SELDPKGQHVCVASSPSAELQCCAGWRQKDQECTIPICEGPDACQKDEVCVKPGLCRCKPGFFGAHCSSRCPGQYWGPDCRESCPCHPHGQCEPATGACQCQADRWGARCEFPCACGPHGRCDPATGVCHCEPGWWSSTCRRPCQCNTAAARCEQATGACVCKPGWWGRRCSFRCNCHGSPCEQDSGRCACRPGWWGPECQQLIK
B2: SR-F1(20-353) (domain or fragment)
chain: SELDPKGQHVCVASSPSAELQCCAGWRQKDQECTIPICEGPDACQKDEVCVKPGLCRCKPGFFGAHCSSRCPGQYWGPDCRESCPCHPHGQCEPATGACQCQADRWGARCEFPCACGPHGRCDPATGVCHCEPGWWSSTCRRPCQCNTAAARCEQATGACVCKPGWWGRRCSFRCNCHGSPCEQDSGRCACRPGWWGPECQQQCECVRGRCSAASGECTCPPGFRGARCELPCPAGSHGVQCAHSCGRCKHNEPCSPDTGSCESCEPGWNGTQCQQPCLPGTFGESCEQQCPHCRHGEACEPDTGHCQRCDPGWLGPRCEDPCPTGTFGEDCGSLIK
modifications: N-linked glycan at Asn 289
B3: SR-F1(20-421), recombinant soluble SR-F1 ectodomain (domain or fragment)
chain: SELDPKGQHVCVASSPSAELQCCAGWRQKDQECTIPICEGPDACQKDEVCVKPGLCRCKPGFFGAHCSSRCPGQYWGPDCRESCPCHPHGQCEPATGACQCQADRWGARCEFPCACGPHGRCDPATGVCHCEPGWWSSTCRRPCQCNTAAARCEQATGACVCKPGWWGRRCSFRCNCHGSPCEQDSGRCACRPGWWGPECQQQCECVRGRCSAASGECTCPPGFRGARCELPCPAGSHGVQCAHSCGRCKHNEPCSPDTGSCESCEPGWNGTQCQQPCLPGTFGESCEQQCPHCRHGEACEPDTGHCQRCDPGWLGPRCEDPCPTGTFGEDCGSTCPTCVQGSCDTVTGDCVCSAGYWGPSCNASCPAGFHGNNCSVPCECPEGLCHPVSGSCQPGSGSRDTLIK
modifications: N-linked glycans at Asn 289, 382 and 393

The test deals with complement protein C1q (human, UniProt P02745 23-245; P02746 28-253; P02747 29-245). Briefly: SPR. (Surface plasmon resonance follows binding to a sensor surface in real time, without labels.)
Chain of complement protein C1q (P02745 23-245, chain 1 of 3): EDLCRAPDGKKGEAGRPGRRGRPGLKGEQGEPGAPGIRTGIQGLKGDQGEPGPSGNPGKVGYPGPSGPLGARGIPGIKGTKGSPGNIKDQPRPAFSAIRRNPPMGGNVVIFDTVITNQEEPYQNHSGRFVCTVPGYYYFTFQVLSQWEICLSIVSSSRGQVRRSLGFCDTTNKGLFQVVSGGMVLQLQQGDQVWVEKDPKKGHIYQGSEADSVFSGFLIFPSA
Chain of complement protein C1q (P02746 28-253, chain 2 of 3): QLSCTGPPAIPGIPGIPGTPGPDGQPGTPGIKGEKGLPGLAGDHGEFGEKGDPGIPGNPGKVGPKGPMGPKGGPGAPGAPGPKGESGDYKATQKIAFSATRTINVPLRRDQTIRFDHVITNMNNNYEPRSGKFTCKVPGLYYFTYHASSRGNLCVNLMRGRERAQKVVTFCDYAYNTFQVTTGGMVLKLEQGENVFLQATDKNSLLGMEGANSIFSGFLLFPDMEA
Chain of complement protein C1q (P02747 29-245, chain 3 of 3): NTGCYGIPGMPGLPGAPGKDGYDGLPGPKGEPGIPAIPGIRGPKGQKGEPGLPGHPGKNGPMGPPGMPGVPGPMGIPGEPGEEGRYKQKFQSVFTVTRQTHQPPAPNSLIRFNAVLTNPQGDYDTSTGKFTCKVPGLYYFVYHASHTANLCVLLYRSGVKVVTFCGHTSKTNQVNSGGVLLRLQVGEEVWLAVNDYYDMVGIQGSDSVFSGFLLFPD
Broadly, the Kd is a measure of binding affinity in units of concentration. Read a low Kd as tighter binding. In turn, B1 displayed a Kd of 19 nM.

B2 yielded a Kd of 42 nM.

For B3, the affinity, expressed as Kd, was 154 nM.
